Columns and labels:
[1] = ICV injection, food intake in 24-h fasted rats (studies 1a, 2a); type: in vivo, rat; conditions: ICV 3 nmol, vs saline
Text: (§1) Animals were handled daily after recovery from surgery until completion of the studies.
(§2) Animals had permanent stainless steel guide cannulas (Plastics One, Roanoke, Va.) stereotactically implanted ICV (intracerebraventricularly) or iPVN (into the hypothalamic paraventricular nucleus).

[2] = iPVN injection, food intake in 24-h fasted rats (studies 1b, 2b); type: in vivo, rat; conditions: iPVN 1 nmol, any time point
Protocol: as §1, §2
Therefore, exendin-4 was injected iPVN at a dose of 0.03 nmol.

B1: glicentin (peptide, UniProt P01275 21-89, looked up)
Glicentin: RSLQDTEEKSRSFSASQADPLSDPDQMNEDKRHSQGTFTSDYSKYLDSRRAQDFVQWLMNTKRNRNNIA
modifications: Glicentin
notes: proglucagon-derived peptide purchased from Peninsula Laboratories
- food intake (refeeding) after ICV injection [1]: failed to affect food intake at any time point
- food intake after iPVN injection [2]: failed to affect food intake at any time point

Source: patent US7825091B2, “Modification of feeding behaviour” (Imperial Innovations Limited, priority 2003, dated 2010)
